In patent US9487562B2, “Stabilized polypeptides as regulators of RAB GTPase function” (President and Fellows of Harvard College, priority 2011, dated 2016):
Entries after “also recorded” stand apart in the source; their conditions may differ. Each block holds one molecule with its values, some of them ahead of it. Bridge positions count the residues as written; N and C are the ends. Square brackets hold non-standard residues; d marks the D form. Ends that are not written are not given here. * marks the point of attachment. FITC = O=C1OC2(c3ccc(O)cc3Oc3cc(O)ccc32)c2ccc(NC(=S)*)cc21; Met(O) = CS(=O)CC[C@H](N)C(=O)O; S5 = C=CCCC[C@](C)(N)C(=O)O

What was measured:
GST-H6-RAB25 = GST-H6-RAB25 (UniProt P57735); test: AlphaScreen competition
RAB25 [1] = molecular target: RAB25 (UniProt P57735); test: ALPHAscreen competition
RAB25 [2] = molecular target: T1, RAB25 (Homo sapiens, UniProt P57735); test: Fluorescence polarization binding of FITC-FIP/FITC-RFP peptides to RAB25; details: FITC peptide 15 nM
T1 construct: RAB25 (residues E7-Q180) was expressed with an N-terminal GST- and hexahistidine tag; made in house; host or cells: Escherichia coli BL21(DE3) pLysS
T1 sequence (P57735 7-180): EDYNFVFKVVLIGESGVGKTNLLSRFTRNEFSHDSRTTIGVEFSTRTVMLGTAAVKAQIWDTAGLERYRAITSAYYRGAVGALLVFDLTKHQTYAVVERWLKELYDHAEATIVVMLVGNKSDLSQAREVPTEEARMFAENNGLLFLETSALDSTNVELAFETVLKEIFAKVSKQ
Protocol: (§1) RAB11/25 protein binding assays were performed by incubating FITC-FIP or FITC-RFP (stapled FIP derivatives) peptides (15 nM) with three-fold dilutions of recombinantly-expressed, purified RAB11, RAB25 or a various epitope-tagged version of either in protein-binding buffer (25 mM Tris-HCl, pH 8.0, 150 mM NaCl, 1 mM EDTA, 1 mM DTT, 10 mM MgCl2, 10 mM GTP). Dilutions and incubations were made in 384-well, black flat-bottom plates (Corning) to a total volume of 40 μL and equilibrated for 60 minutes. Polarization was measured on a Spectramax-M5 multi-label plate reader with λex=485 nm and λem=525 nm. Polarization was calculated according to the standard equation: P=(V−H)/(V+H), where P=polarization, V=vertical emission intensity and H=horizontal emission intensity. Kd values were determined by fitting data to a variable-slope sigmoidal binding curve using Prizm 4 graphing software.
(§2) RAB11 and RAB25 proteins were expressed and purified in Escherichia coli strain BL21(DE3) pLysS (Stratagene) as epitope-tagged fusion proteins in various vectors (Novagen). RAB25 (residues E7-Q180) was expressed with an N-terminal GST- and hexahistidine tag with internal thrombin and TEV cleavage sites (GST-H6-RAB25) (SEQ ID NO: 86) in a pET41-1 vector (Novagen) or with an N-terminal hexahistidine tag alone with an internal thrombin cleavage site (H6-RAB25) (SEQ ID NO: 86) in a pET28 vector (Novagen). FIP3 protein (residues 649-756) was expressed with an N-terminal GST-tag with an internal TEV cleavage site (GST-FIP3) in a pGEX6p-1 vector (Novagen). RAB11 (residues 1-175) was expressed with an N-terminal GST-tag with an internal thrombin cleavage site in a pGEX5x-1 vector (Novagen). Transformed bacteria was grown at 37° C. until an OD600=0.8 was reached, at which point the culture was induced with 0.5 mM isopropyl β-D-1-thiogalactopyranoside (IPTG). Induced cells were grown at 30° C. for 6 hours, pelleted and lysed in binding buffer (25 mM Tris-HC;, pH 8.0, 150 mM NaCl, 1 mM EDTA, 1 mM DTT, 10 mM MgCl2, 10 mM GTP) supplemented with a complete protease inhibitor tablet (Roche) by sonication on ice. The lysate was centrifuged at 14,000 rpm to clear insoluble matter prior to loading onto Ni-NTA resin (Qiagen) for hexahistdine-tagged constructs or on GST-bind agarose resin (Biorad) for GST-tagged constructs. The protein-bound bead slurry was washed 4× with ˜20 mL of buffer and retained protein was eluted with either 250 mM imidazole or 20 mM glutathione in buffer for H6-(SEQ ID NO: 86) or GST-proteins, respectively. The eluent was concentrated using a 30 kD exclusion filter and purified by size-exclusion chromatography on a Superdex-75 Column (Amersham Pharmacia Biotech). Fractions containing purified protein were pooled, concentrated and dialyzed into binding buffer or other similar buffer for specific biochemical assays.

RAB11 [3] = molecular target: T2, RAB11 (Homo sapiens, UniProt P62491); test: Fluorescence polarization binding of FITC-FIP/FITC-RFP peptides to RAB11; details: for binding affinity to RAB11: FITC peptide 15 nM, fluorescence polarization; for binding to RAB11: in the presence and absence of GTP, FITC peptide
T2 construct: RAB11 (residues 1-175) was expressed with an N-terminal GST-tag with an internal thrombin cleavage site; GST (thrombin cleavage site between tag and RAB11) (N); made in house; host or cells: Escherichia coli BL21(DE3) pLysS
T2 sequence (P62491 1-175): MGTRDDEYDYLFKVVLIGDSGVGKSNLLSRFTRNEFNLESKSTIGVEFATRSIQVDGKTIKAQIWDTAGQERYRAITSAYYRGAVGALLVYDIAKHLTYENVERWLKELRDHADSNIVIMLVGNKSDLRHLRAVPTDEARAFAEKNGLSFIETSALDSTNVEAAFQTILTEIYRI
Protocol: Fluorescence polarization (FP) was used to measure FIP peptide binding to RAB11 and RAB25 proteins. […] This indicated specificity in the binding measurement, as this subtle change would be expected to perturb binding.
as §1, §2

[4] = Peptide thermal stability by CD at 222 nm; assay type: physicochemical; details: CD at 222 nm over 10-90° C.
Protocol: Peptide thermal stability was measured by scanning the peptide CD at 222 nm over a temperature range (10-90° C.). A sigmoidal unfolding curve was apparent for helices of unmodified FIP peptides (FIP4) with a Tm of ˜34° C. (FIG. 12A).
Peptide thermal stability experiments were performed in a similar manner to circular dichroism experiments in Example 5. Peptide solutions were cooled to 10° C. in a temperature controlled CD-chamber and circular dichroism absorbance at 222 nm was measured at 1 degree intervals while the solution was heated to 90° C. 222 nm CD values were plotted as a function of temperature and fitted to a sigmoidal denaturation curve, with the half-maximal temperature representing the Tm.

[5] = Circular dichroism spectra / percent helicity; assay type: physicochemical; details: 20° C. in water, peptides at 50 μM
Protocol: We next investigated the structural stability of the RFPs by obtaining circular dichroism (CD) spectra for each peptide. All measurements were made at 20° C. in water with peptides at 50 μM. […] By comparison, stapled FIP peptides (RFPs) show helical CD spectra indicated by minima at approximately 208 and 222 nm (FIG. 11B).
A circular dichroism spectrometer (Jasco J-710, Japan) was used to determine the α-helical content of all peptides. Peptides were dissolved in water to a final concentration of 50 μM in a quartz cuvette with a path length of 1 cm. Absorbance values were taken at 1 nm intervals between 190 and 260 nm for buffer alone and for peptide solutions. The background (buffer) spectrum was subtracted from experimental spectra, which were subsequently subjected to baseline-normalization and curve-smoothing within the spectrometer software. Percent-helicity was calculated from the absorbance at 222 nm using helical models as previously reported in Chen Y H et al., Biochemistry, 13, 3350-9 (1974).

RAB25 [6] = test: Fluorescence polarization binding of FITC-FIP/FITC-RFP peptides to RAB25
Protocol: as §1, §2

RAB25 [7] = molecular target: RAB25 (UniProt P57735); test: fluorescence polarization
RAB11 [8] = molecular target: RAB11 (UniProt P62491); test: fluorescence polarization
RAB25 [9] = molecular target: T3, RAB25 (UniProt P57735 7-180); test: fluorescence polarization (FIG. 19B, RAB25); reference peptide not named
T3 construct: range 7-180; Target of the fluorescence polarization assays; also called H6-RAB25
T3 sequence (looked up): T1 sequence (P57735 7-180)
Protocol: as §1, with “MgCl_2,” for “MgCl2,”, “µL” for “μL”, “$\lambdaex$=485” for “λex=485”, “$\lambdaem$=525” for “λem=525”, “K_d” for “Kd”

GST-RAB11 = GST-RAB11 (UniProt P62491); test: … titration (hook effect), approximately 10 nM GST-RAB11

Molecule: RFP24: stapled FIP peptide containing an E-R mutation to increase overall charge, SEQ ID NO: 82 (RINFRLQN[S5]IDR[S5]IVRIFETNPSILRVK; staple 9-13; not fully specified (C-terminus))
binding affinity to RAB25 (RAB25 [2]): retained binding affinity

Molecule: FIP3(726-56)
IC50 (RAB25 [1]): 14.1 µM

Molecule: FIP4: wild-type unmodified FIP4 peptide (EQEEINFRLRQYMDKIILAILDHNPSILEIKH) [reference compound]
Tm [4]: ~34 °C | CD curve shape / secondary structure [5]: partially unfolded/helical structure | relative affinity RAB11 versus RAB25 (selectivity) (RAB25 [6]): tighter binding to RAB11 than RAB25 | binding affinity to RAB25 (RAB25 [2]): micromolar | binding affinity to RAB11 (RAB11 [3]): micromolar

Molecule: FIP2: unmodified RAB family interacting protein 2 peptide (ERDTHIRELEDYIDNLLVRVMEETPSILRVPY) [reference compound]
binding affinity to RAB25 (RAB25 [2]): little or no binding | binding affinity to RAB11 (RAB11 [3]): little or no binding

Molecule: FITC-RFP1-Ox: chemical derivative of FITC-RFP1 containing an oxidized methionine at a critical hydrophobic interaction site with RAB11 ({FITC}-KQEEINFRLQDYIDRIIVAI[Met(O)]ETNPSILEVK)
binding to RAB11 (RAB11 [3]): decreased binding; also recorded: dose-dependent binding

B1: RFP31 (peptide)
peptide: RINFRLQN[S5]IDR[S5]AARIAETNPSILEVK
modifications: staple 9-13; also: N-terminal cap differs by assay: FITC or diethyleneglycol-biotin
notes: Negative control in which the I/V/M contact residues are changed to alanine; also called triple-alanine mutant negative control
fold decrease in binding affinity (RAB25 [9]): ~100 fold

Molecule: ERDTHIRELEDYIDNLLVRVMEETPSILRVPY (also: N-terminal FITC (FP) or biotin (ALPHASCREEN)) [unmodified FIP2 peptide]
concentration of biotinylated peptide at maximum signal (GST-RAB11): 40 nM

More lines, main results first:

IC50 (GST-H6-RAB25): 10 µM | IC50 (RAB25 [1]): 10.1 µM
Molecule: FIP3 protein (from UniProt O75154 649-756)

binding affinity to RAB25 (RAB25 [2]): little or no binding | binding affinity to RAB11 (RAB11 [3]): little or no binding
Molecule: FIP1: unmodified RAB family interacting protein 1 (class I) peptide (KKEFQVRELEDYIDNLLVRVMEETPNILRIPA) [reference compound]

bias for RAB11 versus RAB25 (RAB11 [3]; ratio of affinities RAB11 vs RAB25): equivalent affinity
Molecule: RFP17: stapled FIP peptide of second design set, SEQ ID NO: 78 (FIG. 7, top to bottom) (RINFRLQN[S5]IDR[S5]IVRIFETNPSILEVK; staple 9-13; not fully specified (C-terminus))
Tm [4]: 54 °C

binding to RAB11 (RAB11 [3]): dose-dependent binding
Molecule: FITC-RFP1: unmodified FIP3 peptide conjugated to FITC ({FITC}-KQEEINFRLQDYIDRIIVAIMETNPSILEVK)

binding affinity to RAB25 (RAB25 [2]): negligible affinity | binding affinity to RAB11 (RAB11 [3]): negligible affinity
Molecule: RFP31: triple-alanine mutant negative control, SEQ ID NO: 84 (RINFRLQNXIDRXAARIAETNPSILEVK; not fully specified; hydrocarbon staple)

Kd (RAB25 [7]): > 5 µM | Kd (RAB11 [8]): 1.7 µM
Molecule: unmodified FIP3 peptide
